Data from the Immune Epitope Database (IEDB).

Assays:
[1] = biological target: HLA-A*01:01; assay: IEDB peptide-MHC binding, purified MHC/direct/fluorescence; filed as Kd, often an IC50 or EC50 that approximates it; ≥ and ≤ were set here for values at or beyond the usual limits of such assays; details: source organism: Mycobacterium tuberculosis
[2] = biological target: HLA-A*02:01; assay: as above; details: source organism: Mycobacterium tuberculosis
[3] = biological target: HLA-A*03:01; assay: as above; details: source organism: Mycobacterium tuberculosis
[4] = biological target: HLA-A*11:01; assay: as above; details: source organism: Mycobacterium tuberculosis
[5] = biological target: HLA-A*26:01; assay: as above
[6] = biological target: HLA-A*31:01; assay: as above; details: source organism: Mycobacterium tuberculosis
[7] = biological target: HLA-A*69:01; assay: as above; details: source organism: Mycobacterium tuberculosis
[8] = biological target: HLA-B*08:01; assay: as above
[9] = biological target: HLA-B*08:02; assay: as above
[10] = biological target: HLA-B*15:01; assay: as above; details: source organism: Mycobacterium tuberculosis
[11] = biological target: HLA-B*15:17; assay: as above; details: source organism: Mycobacterium tuberculosis
[12] = biological target: HLA-B*18:01; assay: as above; details: source organism: Mycobacterium tuberculosis
[13] = biological target: HLA-B*27:05; assay: as above; details: source organism: Mycobacterium tuberculosis
[14] = biological target: HLA-B*38:01; assay: as above
[15] = biological target: HLA-B*40:01; assay: as above; details: source organism: Mycobacterium tuberculosis
[16] = biological target: HLA-B*46:01; assay: as above; details: source organism: Mycobacterium tuberculosis
[17] = biological target: HLA-B*48:01; assay: as above; details: source organism: Mycobacterium tuberculosis
[18] = biological target: HLA-B*51:01; assay: as above; details: source organism: Mycobacterium tuberculosis
[19] = biological target: HLA-B*57:01; assay: as above; details: source organism: Mycobacterium tuberculosis
[20] = biological target: HLA-B*58:01; assay: as above; details: source organism: Mycobacterium tuberculosis
[21] = biological target: HLA-A*30:01; assay: as above; details: source organism: Mycobacterium tuberculosis str. Haarlem
[22] = biological target: HLA-B*15:01; assay: IEDB peptide-MHC binding, purified MHC/competitive/fluorescence; filed as Kd, often an IC50 or EC50 that approximates it; ≥ and ≤ were set here for values at or beyond the usual limits of such assays
[23] = biological target: HLA-B*15:09; assay: as above; details: source organism: Mycobacterium tuberculosis C
[24] = biological target: HLA-B*39:01; assay: as above; details: source organism: Mycobacterium tuberculosis C
[25] = biological target: HLA-B*15:42; assay: as above; details: source organism: Mycobacterium tuberculosis variant bovis BCG str. Pasteur 1173P2
[26] = biological target: HLA-B*45:06; assay: as above; details: source organism: Mycobacterium tuberculosis variant bovis BCG str. Pasteur 1173P2
[27] = biological target: HLA-B*83:01; assay: as above; details: source organism: Mycobacterium tuberculosis variant bovis BCG str. Pasteur 1173P2
[28] = source organism: Mycobacterium tuberculosis F11
[29] = source organism: Mycobacterium tuberculosis str. Haarlem

| Sequence | Kd [1] [µM] | Kd [2] [µM] | Kd [3] [µM] | Kd [4] [µM] | Kd [6] [µM] | Kd [7] [µM] | Kd [11] [µM] | Kd [12] [µM] | Kd [13] [µM] | Kd [15] [µM] | Kd [16] [µM] | Kd [17] [µM] | Kd [18] [µM] | Kd [19] [µM] | Kd [20] [µM] | Kd [8, 29] [µM] | Kd [9, 29] [µM] | Kd [14, 29] [µM] | other results |
| --- | --- | --- | --- | --- | --- | --- | --- | --- | --- | --- | --- | --- | --- | --- | --- | --- | --- | --- | --- |
| KPKLARGEL | ≥ 20 | ≥ 20 | ≥ 20 | ≥ 20 | ≥ 20 | ≥ 20 | ≥ 20 | 2.57 | ≥ 20 | 1.16 | ≥ 20 | ≥ 20 | ≥ 20 | ≥ 20 | ≥ 20 |  |  |  | Kd [5, 28]: ≥ 20 µM; Kd [8, 28]: 0.19 µM; Kd [9, 28]: ≥ 5 µM; Kd [10]: ≥ 20 µM; Kd [14, 28]: ≥ 20 µM |
| RPKPDYSAM | ≥ 20 | ≥ 20 | ≥ 20 | ≥ 20 | ≥ 20 | ≥ 20 |  | ≥ 20 | ≥ 20 | ≥ 20 | ≥ 20 | ≥ 20 | ≥ 20 | ≥ 20 | ≥ 20 | 0.08 | ≥ 20 | ≥ 20 | Kd [5, 29]: ≥ 20 µM; Kd [21]: 0.123 µM; Kd ([22]; source organism: Mycobacterium tuberculosis C): ≥ 20 µM; Kd [23]: ≥ 20 µM; Kd [24]: 1.96 µM |
| RPRVAQLTF | 4.16 | ≥ 20 | ≥ 20 | ≥ 20 | ≥ 20 | ≥ 20 | 0.169 | 0.104 | ≥ 20 | ≥ 20 | ≥ 20 | ≥ 20 | ≥ 20 | 0.864 | ≥ 20 | 0.267 | 3.86 | ≥ 20 | Kd ([22]; source organism: Mycobacterium tuberculosis variant bovis BCG str. Pasteur 1173P2): ≥ 20 µM; Kd [25]: ≥ 5 µM; Kd [26]: ≥ 5 µM; Kd [27]: 2.01 µM |
